In general, pKd refers to the Kd on a negative log10 scale, so that one unit is a factor of ten. Read a high pKd as a low Kd.

For two sequences, Kd results are on record in PMC8287928.

This data set deals with SARS-CoV-2 spike pseudotyped lentivirus (PV) (SARS-CoV-2 (Wuhan-Hu-1)) (UniProt P0DTC2). Description: dot blot (filter binding).

pKd: −log10 of the molar value.

The sequence “TTACGTCAAGGTGTCACTCCACGGGTTTGGCGTCGGGCCTGGCGGGGGGATAGTGCGGTGGAAGCATCTCTTTGGCGTG [MSA5]” gave a negative-log Kd (pKd) of 10.93.
As to “TTACGTCAAGGTGTCACTCCCACTTTCCGGTTAATTTATGCTCTACCCGTCCACCTACCGGAAGCATCTCTTTGGCGTG [MSA1]”, the pKd is 10.64.
